Source: article PMC4787769
Where “and” joins values, the source holds several entries; their conditions need not be identical. Equal entries are not always repeated. Where two headings read alike, the source gives them in different places.

Legend:
[1] = target: mLANA DBD (Murine gammaherpesvirus 68 (MHV-68)) (UniProt O41974); test: ITC
[2] = target: kLANA_(1008–1150 (K1109E)) (KSHV); test: SEC
[3] = target: kLANA_(1008–1150 (K1109E)) (KSHV); test: SAXS
[4] = target: MHV-68 LANA DNA binding domain, mLANA_(124–314) (MHV-68); test: SEC
[5] = target: MHV-68 LANA DNA binding domain, mLANA_(124–314) (MHV-68); test: SAXS
[6] = target: MHV-68 LANA DNA binding domain, mLANA_(124–314) (MHV-68); test: SAXS; remark: listed apart in the source
[7] = target: KSHV LANA DNA binding domain, kLANA_(1008–1150) (KSHV); test: SEC
[8] = target: KSHV LANA DNA binding domain, kLANA_(1008–1150) (KSHV); test: SAXS
[9] = target: KSHV LANA DNA binding domain, kLANA_(1019–1150) (KSHV); test: crystal structure
[10] = target: KSHV LANA DNA binding domain, kLANA_(1019–1150) (KSHV); test: SEC; gel filtration in the presence of 1 M NaCl
[11] = target: kLANA_(k1109E, A1121E) (KSHV); test: SEC
[12] = target: kLANA_(k1109E, A1121E) (KSHV); test: SEC; remark: listed apart in the source

kLBS1-2 was tested, and the Kd [1] was 71.7 nM.
In the case of “kLANA_(1008–1150 (K1109E)) (domain or fragment)”, the stoichiometry N [2] is reported as 2 and 4, the percent of species present as bent tetramer [3] is reported as 20% and the percent of species present as dimer [3] is reported as less than 80%. The stoichiometry N [3] was 2 and 4.
“MHV-68 LANA DNA binding domain, mLANA_(124–314) (domain or fragment)” was tested, and the stoichiometry N [4] was 2 and 4, the stoichiometry N [5] was 4 and the stoichiometry N [6] was 8.
For “KSHV LANA DNA binding domain, kLANA_(1008–1150) (domain or fragment)”, the stoichiometry N [7] was 2 and 4, the percent of the mixture present as octamer with two kLBS1–2 DNA [8] was 74% and the stoichiometry N [8] was 8 and 4.
“KSHV LANA DNA binding domain, kLANA_(1019–1150) (domain or fragment)” was tested, and the stoichiometry N [9] was 2 and 4 and the stoichiometry N [10] was 2.
“kLANA_(k1109E, A1121E) (domain or fragment)” gave a stoichiometry N [11] of 2 and a stoichiometry N [12] of 4.
